# Test results published in the supplement of paper PMC7125110.
# ± gives the standard error. Variants at the floor of the assay were thinned out.
# B1: glmS ribozyme (parent)
# chain: AUAAAAGCGCCAGAACUACAGAAAUGUAGUUGACGAGGAGGAGGUUUAUCGAAUUUUCGGCGGAUGCCUCCAAA
# Legend:
# Conditions in all cases: with glucosamine-6-phosphate
# glucosamine-6-phosphate [1] = variants of: B1; assay: self-cleavage kobs at 40 uM GlcN6P; higher = faster cleavage; RNA array
# Summary of the method: (§1)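 Glucosamine-6-phosphate, from 40 μM to 10 mM in HEPES/KCl/Mg(OAc)2 buffer, was flowed over sequenced MiSeq chips carrying barcoded ribozyme variants transcribed in situ by E. coli RNA polymerase. A hybridised Cy3 probe tracked the variants at 37 °C as tiles were imaged over ~14 h. kobs, kcat and KM were obtained by fitting normalised per-tile medians to exponential decays and then applying weighted Michaelis–Menten fits across concentrations.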
# glucosamine-6-phosphate [2] = variants of: B1; assay: self-cleavage kobs at 160 uM GlcN6P; higher = faster cleavage; RNA array
# Summary of the method: as §1
# glucosamine-6-phosphate [3] = variants of: B1; assay: self-cleavage kobs at 640 uM GlcN6P; higher = faster cleavage; RNA array
# Summary of the method: as §1
# glucosamine-6-phosphate [4] = variants of: B1; assay: self-cleavage kobs at 10000 uM GlcN6P; higher = faster cleavage; RNA array
# Summary of the method: as §1
# glucosamine-6-phosphate [5] = variants of: B1; assay: self-cleavage kobs at 2500 uM GlcN6P; higher = faster cleavage; RNA array
# Summary of the method: as §1
Variant,self-cleavage kobs at 40 uM GlcN6P (glucosamine-6-phosphate [1]),self-cleavage kobs at 160 uM GlcN6P (glucosamine-6-phosphate [2]),self-cleavage kobs at 640 uM GlcN6P (glucosamine-6-phosphate [3]),self-cleavage kobs at 10000 uM GlcN6P (glucosamine-6-phosphate [4]),self-cleavage kobs at 2500 uM GlcN6P (glucosamine-6-phosphate [5])
C10U G60U,< 1e-05 s⁻¹,< 1e-05 s⁻¹,< 1e-05 s⁻¹,< 1e-05 s⁻¹,–
C11G G13A,< 1e-05 s⁻¹,< 1e-05 s⁻¹,–,< 1e-05 s⁻¹,–
C10A G41C,< 1e-05 s⁻¹,< 1e-05 s⁻¹,< 1e-05 s⁻¹,< 1e-05 s⁻¹,< 1e-05 s⁻¹
C11A G44U G59U C67A,0.000322 ± 8.1e-05 s⁻¹,–,–,0.00946 ± 0.002 s⁻¹,–
C11G G35C C70G,8.82e-05 ± 4e-05 s⁻¹,–,–,–,–
G9U G43U,< 1e-05 s⁻¹,–,< 1e-05 s⁻¹,< 1e-05 s⁻¹,< 1e-05 s⁻¹
C10G C11G C68U,< 1e-05 s⁻¹,–,–,–,–
C10G U30A A42U G51A,< 1e-05 s⁻¹,–,–,–,–
C11A C61A C67A,0.000153 ± 4.5e-05 s⁻¹,–,–,7.62e-05 ± 2.5e-05 s⁻¹,–
G9C U49A,< 1e-05 s⁻¹,–,< 1e-05 s⁻¹,< 1e-05 s⁻¹,< 1e-05 s⁻¹
C10G G51A,< 1e-05 s⁻¹,–,< 1e-05 s⁻¹,< 1e-05 s⁻¹,< 1e-05 s⁻¹
C10U G44A,< 1e-05 s⁻¹,< 1e-05 s⁻¹,< 1e-05 s⁻¹,< 1e-05 s⁻¹,–
C10U G13A A39U G60U,< 1e-05 s⁻¹,–,–,–,–
C11A A14U G66U C67A,< 1e-05 s⁻¹,–,–,–,–
C10U G13C A36C,< 1e-05 s⁻¹,–,–,–,–
C10U C11A,< 1e-05 s⁻¹,< 1e-05 s⁻¹,–,–,–
C11A C34U G63C,< 1e-05 s⁻¹,–,< 1e-05 s⁻¹,–,< 1e-05 s⁻¹
C10U A15C G43U C50U U57G G59A,< 1e-05 s⁻¹,< 1e-05 s⁻¹,< 1e-05 s⁻¹,< 1e-05 s⁻¹,< 1e-05 s⁻¹
C10U G32C C68A,< 1e-05 s⁻¹,–,–,–,–
C11G G40A A42G C58U C67G C68A,0.00042 ± 9.3e-05 s⁻¹,–,–,0.000191 ± 3.9e-05 s⁻¹,–
C11U A52C,< 1e-05 s⁻¹,–,< 1e-05 s⁻¹,< 1e-05 s⁻¹,< 1e-05 s⁻¹
C11G U55G,< 1e-05 s⁻¹,< 1e-05 s⁻¹,–,–,–
C10U U54A C70A,< 1e-05 s⁻¹,–,–,–,–
C10U A12G G32U A36U C70U,< 1e-05 s⁻¹,–,–,–,–
C11G A36C U55C,< 1e-05 s⁻¹,–,< 1e-05 s⁻¹,–,–
G9U A15C U47C,< 1e-05 s⁻¹,–,–,–,–

Variant,self-cleavage kobs at 40 uM GlcN6P (glucosamine-6-phosphate [1]),self-cleavage kobs at 160 uM GlcN6P (glucosamine-6-phosphate [2]),self-cleavage kobs at 640 uM GlcN6P (glucosamine-6-phosphate [3]),self-cleavage kobs at 10000 uM GlcN6P (glucosamine-6-phosphate [4]),self-cleavage kobs at 2500 uM GlcN6P (glucosamine-6-phosphate [5])
C11A A15C U45G C70U,< 1e-05 s⁻¹,–,–,–,–
C11G U31C C34G U46A,< 1e-05 s⁻¹,–,–,< 1e-05 s⁻¹,–
C11U A15C G62C,< 1e-05 s⁻¹,–,–,< 1e-05 s⁻¹,–
C11G G41C,< 1e-05 s⁻¹,< 1e-05 s⁻¹,< 1e-05 s⁻¹,–,< 1e-05 s⁻¹
C11G A12U,< 1e-05 s⁻¹,–,–,–,< 1e-05 s⁻¹
C10A G38C G60U C71U,< 1e-05 s⁻¹,–,–,–,–
C10U U65A,< 1e-05 s⁻¹,< 1e-05 s⁻¹,< 1e-05 s⁻¹,< 1e-05 s⁻¹,< 1e-05 s⁻¹
C10U C50G U57G,0.000105 ± 2.4e-05 s⁻¹,–,–,4.71e-05 ± 1.6e-05 s⁻¹,–
C10G A15G U30G G63U,< 1e-05 s⁻¹,–,< 1e-05 s⁻¹,< 1e-05 s⁻¹,–
C11A C34G,< 1e-05 s⁻¹,< 1e-05 s⁻¹,< 1e-05 s⁻¹,< 1e-05 s⁻¹,–
C10G G32U A36C G40U G63U,< 1e-05 s⁻¹,–,–,< 1e-05 s⁻¹,< 1e-05 s⁻¹
G9U G32C A42U,< 1e-05 s⁻¹,–,< 1e-05 s⁻¹,< 1e-05 s⁻¹,–
G9U U30C A36C,< 1e-05 s⁻¹,–,< 1e-05 s⁻¹,–,< 1e-05 s⁻¹
C11U A33U C61G,< 1e-05 s⁻¹,–,–,–,–
C10A G32A U47A,< 1e-05 s⁻¹,–,–,–,–
G9U A15U,< 1e-05 s⁻¹,< 1e-05 s⁻¹,< 1e-05 s⁻¹,–,–
C10G A33U C67G,< 1e-05 s⁻¹,–,–,–,–
C10G G62A,< 1e-05 s⁻¹,< 1e-05 s⁻¹,< 1e-05 s⁻¹,< 1e-05 s⁻¹,–
C10A A52C,< 1e-05 s⁻¹,–,< 1e-05 s⁻¹,< 1e-05 s⁻¹,< 1e-05 s⁻¹
C10A A15U C16U C34U,< 1e-05 s⁻¹,–,–,–,–
C10A G29C U56C A64G,< 1e-05 s⁻¹,–,–,–,–
C11A U45G,< 1e-05 s⁻¹,< 1e-05 s⁻¹,< 1e-05 s⁻¹,–,–
C10U G37A G44A U57C,< 1e-05 s⁻¹,–,–,–,–
C10U G43C C50U C70U,< 1e-05 s⁻¹,–,–,< 1e-05 s⁻¹,< 1e-05 s⁻¹
C10G U30C A33C U55A,< 1e-05 s⁻¹,–,–,< 1e-05 s⁻¹,–
